In test [1] the target is T1, Peptidylprolyl isomerase A (PPIA), also known as cyclophilin A (CypA), P62937. The test can be described thus: method not stated; told in the description of FIG. 20.
Test [2] addresses T1, Peptidylprolyl isomerase A (PPIA), also …. In words: printed as 'Disrupts the complex AIF/Cyclophilin with a KD'; method not stated.

One may read the Kd as the concentration at which binding is half-saturated. Read a high Kd as a looser complex.

T1 sequence (P62937 whole entry): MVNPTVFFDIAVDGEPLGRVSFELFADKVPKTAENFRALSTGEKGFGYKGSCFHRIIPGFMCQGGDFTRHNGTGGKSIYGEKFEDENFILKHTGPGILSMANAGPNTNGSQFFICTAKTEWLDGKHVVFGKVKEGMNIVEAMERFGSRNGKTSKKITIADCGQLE

B1: TAT-AIF (370-394) (peptide)
peptide: GRKKRRQRRRAQSVGVSSGKLLIKLKDGRKVETDHI
modifications: not checked
Consider B1, for which the Kd in test [1] came out at 12 µM; in test [2] it was 5 µM.

For the origin of these results see patent US20240109937A1, “BINDING PEPTIDES AND USES THEREOF” (The Johns Hopkins University, priority 2021, published 2024).
